The target of this assay is T1, CSPG (bovine) (D8428, Sigma) (bovine, UniProt P21793 31-360, carries chondroitin sulfate A (CSA) glycosaminoglycan chain(s); the filing attributes the binding of VAR2CSA to this glycan).
T1 construct: also called chondroitin sulfate proteoglycan; CSA proteoglycan
Put plainly: quartz crystal microbalance (Attana A100), CSPG coated, 1:1 fit.

T1 sequence (P21793 31-360): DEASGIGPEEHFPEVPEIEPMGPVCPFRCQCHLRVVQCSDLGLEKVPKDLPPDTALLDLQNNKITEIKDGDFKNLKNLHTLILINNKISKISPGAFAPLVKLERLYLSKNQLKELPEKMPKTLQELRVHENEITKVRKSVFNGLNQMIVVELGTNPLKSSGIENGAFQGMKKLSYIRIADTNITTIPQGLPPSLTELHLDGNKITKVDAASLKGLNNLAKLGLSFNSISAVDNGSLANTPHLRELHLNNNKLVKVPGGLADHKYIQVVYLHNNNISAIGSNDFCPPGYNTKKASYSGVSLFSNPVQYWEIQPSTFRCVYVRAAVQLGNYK

B1: DBL1-ID2a (3D7, Baculo) (other)
chain: HSDSGTNDPCDRIPPPYGDNDQWKCAIILSKVSEKPENVFVPPRRQRMCINNLEKLNVDKIRDKHAFLADVLLTARNEGERIVQNHPDTNSSNVCNALERSFADIADIIRGTDLWKGTNSNLEQNLKQMFAKIRENDKVLQDKYPKDQNYRKLREDWWNANRQKVWEVITCGARSNDLLIKRGWRTSGKSNGDNKLELCRKCGHYEEKVPTKLDYVPQFLRWLTEWIEDFYREKQNLIDDMERHREECTSEDHKSKEGTSYCSTCKDKCKKYCECVKKWKSEWENQKNKYTELYQQNKNETSQKNTSRYDDYVKDFFKKLEANYSSLENYIKGDPYFAEYATKLSFILNSSDANNPSEKIQKNNDEVCNCNESGIASVEQEQISDPSSNKTCITHSSIKANKKKVCKHVKLGVRENDKDLRVCVIEHTSLSGVENCCCQDFLRILQENCSDNKSGSSSNGSCNNKNQEACEKNLEKVLASLTNCYKCDKCKSEQSKKNNKNWIWKKSSGKEGGLQKEYANTIGLPPRTQSLCLVVCLDEKGKKTQELKNIRTNSELLKEWIIAAFHEGKNLKPSHEKKNDDNGKKLCKALEYSFADYGDLIKGTSIWDNEYTKDLELNLQKIFGKLFRKYIKKNNTAEQDTSYSSLDELRESWWNTNKKYIWLAMKHGAGMNSTTCCGDGSVTGSGSSCDDIPTIDLIPQYLRFLQEWVEHFCKQRQEKVKPVIENCKSCKESGGTCNGECKTECKNKCEVYKKFIEDCKGGDGTAGSSWVKRWDQIYKRYSKYIEDAKRNRKAGTKNCGPSSTTNAAENKCVQSDIDSFFKHLIDIGLTTPSSYLSIVLDDNICGADKAPWTTYTTYTTTEKCNKETDKSKLQQCNTAVVVNVPSPLGNTPHGYKYACQCKIPTNEETCDDRKEYMNQWSCGSARTMKRGYKNDNYELCKYNGVDVKPTTVRSNSSKLD
notes: also called DBL1X-ID2a; not shown: V5 and His tag at the C-terminal (modified pAcGP67-A)
Molecule B1 showed a Kd of 29.5 nM.

B2: ID1-ID2a (FCR3, Baculo) (other)
chain: NYIKGDPYFAEYATKLSFILNPSDANNPSGETANHNDEACNCNESGISSVGQAQTSGPSSNKTCITHSSIKTNKKKECKDVKLGVRENDKDLKICVIEDTSLSGVDNCCCQDLLGILQENCSDNKRGSSSNDSCDNKNQDECQKKLEKVFASLTNGYKCDKCKSGTSRSKKKWIWKKSSGNEEGLQEEYANTIGLPPRTQSLYLGNLPKLENVCEDVKDINFDTKEKFLAGCLIVSFHEGKNLKKRYPQNKNSGNKENLCKALEYSFADYGDLIKGTSIWDNEYTKDLELNLQNNFGKLFGKYIKKNNTAEQDTSYSSLDELRESWWNTNKKYIWTAMKHGAEMNITTCNADGSVTGSGSSCDDIPTIDLIPQYLRFLQEWVENFCEQRQAKVKDVITNCKSCKESGNKCKTECKTKCKDECEKYKKFIEACGTAGGGIGTAGSPWSKRWDQIYKRYSKHIEDAKRNRKAGTKNCGTSSTTNAAASTDENKCVQSDIDSFFKHLIDIGLTTPSSYLSNVLDDNICGADKAPWTTYTTYTTTEKCNKERDKSKSQSSDTLVVVNVPSPLGNTPYRYKYACQCKIPTNEETCDDRKEYMNQWSCGSARTMKRGYKNDNYELCKYNGVDVKPTTVRSNSSKLD
notes: The primers (NYIKGD ... NSSKLD) match its two ends; not shown: V5 and His tag at the C-terminal (modified pAcGP67-A)
B2 gave a Kd of 7.6 nM.

B3: ID1-ID2a (FCR3, E. coli) (other)
chain: NYIKGDPYFAEYATKLSFILNPSDANNPSGETANHNDEACNCNESGISSVGQAQTSGPSSNKTCITHSSIKTNKKKECKDVKLGVRENDKDLKICVIEDTSLSGVDNCCCQDLLGILQENCSDNKRGSSSNDSCDNKNQDECQKKLEKVFASLTNGYKCDKCKSGTSRSKKKWIWKKSSGNEEGLQEEYANTIGLPPRTQSLYLGNLPKLENVCEDVKDINFDTKEKFLAGCLIVSFHEGKNLKKRYPQNKNSGNKENLCKALEYSFADYGDLIKGTSIWDNEYTKDLELNLQNNFGKLFGKYIKKNNTAEQDTSYSSLDELRESWWNTNKKYIWTAMKHGAEMNITTCNADGSVTGSGSSCDDIPTIDLIPQYLRFLQEWVENFCEQRQAKVKDVITNCKSCKESGNKCKTECKTKCKDECEKYKKFIEACGTAGGGIGTAGSPWSKRWDQIYKRYSKHIEDAKRNRKAGTKNCGTSSTTNAAASTDENKCVQSDIDSFFKHLIDIGLTTPSSYLSNVLDDNICGADKAPWTTYTTYTTTEKCNKERDKSKSQSSDTLVVVNVPSPLGNTPYRYKYACQCKIPTNEETCDDRKEYMNQWSCGSARTMKRGYKNDNYELCKYNGVDVKPTTVRSNSSKLD
notes: Made in E. coli
Take B3: the Kd was 18.3 nM.

B4: DBL1-ID2a (FCR3, Baculo) (other)
chain: HSDSGKYDPCEKKLPPYDDNDQWKCQQNSSDGSGKPENICVPPRRERLCTYNLENLKFDKIRDNNAFLADVLLTARNEGEKIVQNHPDTNSSNVCNALERSFADLADIIRGTDQWKGTNSNLEKNLKQMFAKIRENDKVLQDKYPKDQKYTKLREAWWNANRQKVWEVITCGARSNDLLIKRGWRTSGKSDRKKNFELCRKCGHYEKEVPTKLDYVPQFLRWLTEWIEDFYREKQNLIDDMERHREECTREDHKSKEGTSYCSTCKDKCKKYCECVKKWKTEWENQENKYKDLYEQNKNKTSQKNTSRYDDYVKDFFEKLEANYSSLENYIKGDPYFAEYATKLSFILNPSDANNPSGETANHNDEACNCNESGISSVGQAQTSGPSSNKTCITHSSIKTNKKKECKDVKLGVRENDKDLKICVIEDTSLSGVDNCCCQDLLGILQENCSDNKRGSSSNDSCDNKNQDECQKKLEKVFASLTNGYKCDKCKSGTSRSKKKWIWKKSSGNEEGLQEEYANTIGLPPRTQSLYLGNLPKLENVCEDVKDINFDTKEKFLAGCLIVSFHEGKNLKKRYPQNKNSGNKENLCKALEYSFADYGDLIKGTSIWDNEYTKDLELNLQNNFGKLFGKYIKKNNTAEQDTSYSSLDELRESWWNTNKKYIWTAMKHGAEMNITTCNADGSVTGSGSSCDDIPTIDLIPQYLRFLQEWVENFCEQRQAKVKDVITNCKSCKESGNKCKTECKTKCKDECEKYKKFIEACGTAGGGIGTAGSPWSKRWDQIYKRYSKHIEDAKRNRKAGTKNCGTSSTTNAAASTDENKCVQSDIDSFFKHLIDIGLTTPSSYLSNVLDDNICGADKAPWTTYTTYTTTEKCNKERDKSKSQSSDTLVVVNVPSPLGNTPYRYKYACQCKIPTNEETCDDRKEYMNQWSCGSARTMKRGYKNDNYELCKYNGVDVKPTTVRSNSSKLD
notes: also called DBL1X-ID2a; wild-type protein; not shown: V5 and His tag at the C-terminal (modified pAcGP67-A)
Regarding B4, the Kd amounted to 8 nM.

B5: DBL1-ID2a (FCR3, E. coli) (other)
chain: HSDSGKYDPCEKKLPPYDDNDQWKCQQNSSDGSGKPENICVPPRRERLCTYNLENLKFDKIRDNNAFLADVLLTARNEGEKIVQNHPDTNSSNVCNALERSFADLADIIRGTDQWKGTNSNLEKNLKQMFAKIRENDKVLQDKYPKDQKYTKLREAWWNANRQKVWEVITCGARSNDLLIKRGWRTSGKSDRKKNFELCRKCGHYEKEVPTKLDYVPQFLRWLTEWIEDFYREKQNLIDDMERHREECTREDHKSKEGTSYCSTCKDKCKKYCECVKKWKTEWENQENKYKDLYEQNKNKTSQKNTSRYDDYVKDFFEKLEANYSSLENYIKGDPYFAEYATKLSFILNPSDANNPSGETANHNDEACNCNESGISSVGQAQTSGPSSNKTCITHSSIKTNKKKECKDVKLGVRENDKDLKICVIEDTSLSGVDNCCCQDLLGILQENCSDNKRGSSSNDSCDNKNQDECQKKLEKVFASLTNGYKCDKCKSGTSRSKKKWIWKKSSGNEEGLQEEYANTIGLPPRTQSLYLGNLPKLENVCEDVKDINFDTKEKFLAGCLIVSFHEGKNLKKRYPQNKNSGNKENLCKALEYSFADYGDLIKGTSIWDNEYTKDLELNLQNNFGKLFGKYIKKNNTAEQDTSYSSLDELRESWWNTNKKYIWTAMKHGAEMNITTCNADGSVTGSGSSCDDIPTIDLIPQYLRFLQEWVENFCEQRQAKVKDVITNCKSCKESGNKCKTECKTKCKDECEKYKKFIEACGTAGGGIGTAGSPWSKRWDQIYKRYSKHIEDAKRNRKAGTKNCGTSSTTNAAASTDENKCVQSDIDSFFKHLIDIGLTTPSSYLSNVLDDNICGADKAPWTTYTTYTTTEKCNKERDKSKSQSSDTLVVVNVPSPLGNTPYRYKYACQCKIPTNEETCDDRKEYMNQWSCGSARTMKRGYKNDNYELCKYNGVDVKPTTVRSNSSKLD
notes: Made in E. coli
On to B5, for which binding was put at a Kd of 3.5 nM.

B6: DBL1X-DBL2Xb (FCR3, E. coli, as the column stands) (other)
chain: HSDSGKYDPCEKKLPPYDDNDQWKCQQNSSDGSGKPENICVPPRRERLCTYNLENLKFDKIRDNNAFLADVLLTARNEGEKIVQNHPDTNSSNVCNALERSFADLADIIRGTDQWKGTNSNLEKNLKQMFAKIRENDKVLQDKYPKDQKYTKLREAWWNANRQKVWEVITCGARSNDLLIKRGWRTSGKSDRKKNFELCRKCGHYEKEVPTKLDYVPQFLRWLTEWIEDFYREKQNLIDDMERHREECTREDHKSKEGTSYCSTCKDKCKKYCECVKKWKTEWENQENKYKDLYEQNKNKTSQKNTSRYDDYVKDFFEKLEANYSSLENYIKGDPYFAEYATKLSFILNPSDANNPSGETANHNDEACNCNESGISSVGQAQTSGPSSNKTCITHSSIKTNKKKECKDVKLGVRENDKDLKICVIEDTSLSGVDNCCCQDLLGILQENCSDNKRGSSSNDSCDNKNQDECQKKLEKVFASLTNGYKCDKCKSGTSRSKKKWIWKKSSGNEEGLQEEYANTIGLPPRTQSLYLGNLPKLENVCEDVKDINFDTKEKFLAGCLIVSFHEGKNLKKRYPQNKNSGNKENLCKALEYSFADYGDLIKGTSIWDNEYTKDLELNLQNNFGKLFGKYIKKNNTAEQDTSYSSLDELRESWWNTNKKYIWTAMKHGAEMNITTCNADGSVTGSGSSCDDIPTIDLIPQYLRFLQEWVENFCEQRQAKVKDVITNCKSCKESGNKCKTECKTKCKDECEKYKKFIEACGTAGGGIGTAGSPWSKRWDQIYKRYSKHIEDAKRNRKAGTKNCGTSSTTNAAASTDENKCVQSDIDSFFKHLIDIGLTTPSSYLSNVLDDNICGADKAPWTTYTTYTTTEKCNKERDKSKSQSSDTLVVVNVPSPLGNTPYRYKY
notes: The value stands in column 4 (E. coli, under FCR3); The column may be shifted, in which case the protein could be the 3D7 baculovirus one; Range derived by me from the FCR3 primers (HSDSGK ... PYRYKY)
The molecule B6 came in with a Kd of 14.6 nM.

B7: ID1-ID2a (3D7, Baculo) (other)
chain: LSFILNSSDANNPSEKIQKNNDEVCNCNESGIASVEQEQISDPSSNKTCITHSSIKANKKKVCKHVKLGVRENDKDLRVCVIEHTSLSGVENCCCQDFLRILQENCSDNKSGSSSNGSCNNKNQEACEKNLEKVLASLTNCYKCDKCKSEQSKKNNKNWIWKKSSGKEGGLQKEYANTIGLPPRTQSLCLVVCLDEKGKKTQELKNIRTNSELLKEWIIAAFHEGKNLKPSHEKKNDDNGKKLCKALEYSFADYGDLIKGTSIWDNEYTKDLELNLQKIFGKLFRKYIKKNNTAEQDTSYSSLDELRESWWNTNKKYIWLAMKHGAGMNSTTCCGDGSVTGSGSSCDDIPTIDLIPQYLRFLQEWVEHFCKQRQEKVKPVIENCKSCKESGGTCNGECKTECKNKCEVYKKFIEDCKGGDGTAGSSWVKRWDQIYKRYSKYIEDAKRNRKAGTKNCGPSSTTNAAENKCVQSDIDSFFKHLIDIGLTTPSSYLSIVLDDNICGADKAPWTTYTTYTTTEKCNKETDKSKLQQCNTAVVVNVPSPLGNTPHGYKYACQCKIPTNEETCDDRKEYMNQWSCGSARTMKRGYKNDNYELCKYNGVDVKPTTVRSNSSKLD
notes: not shown: V5 and His tag at the C-terminal (modified pAcGP67-A)
B7 showed a Kd of 5.7 nM.

In general, Kd refers to the equilibrium constant for the complex coming apart.
